The target in assay [1] is unknown target molecule expressed on the plasma membranes of human HCC cells. In words: in vivo competition, 100 ug SP94 co-injected with 2x10^9 pfu PC94 (competitor of PC94), Mahlavu xenograft; phage recovered from tumor.
For assay [2] the target is unchanged.
Assay [3] shares this target. Briefly: flow cytometry on HCC cell line HA22T. On the set-up: concentration or dose not given beside the values. A general note: Flow cytometry measures light scatter and fluorescence of single cells or particles in a stream.
Assay [4] shares this target. In words: flow cytometry on HCC cell lines Mahlavu, 59T, Hep3B, HepG2, NTUBL and SKHepl (range over the six lines). Details: concentration or dose not given beside the values.
Assay [5] has the same target. Briefly: flow cytometry on HCC cell lines Changliver and J5 (range over the two lines). Details: concentration or dose not given beside the values.

Results on 2 molecules are retold here after patent publication US20090136418A1.

SFSIIHTPILPL [SP94 synthetic peptide (…)]: the percent inhibition of PC94 binding to tumor tissue in assay [1] is 88%.
In the case of SFSIIHTPILPL (peptide, not shown: large carriers) [phage clone 94 (PC94)], the fold binding activity over control phage in assay [2] worked out at 8 fold. Moreover, the percent reactive cells (FACS) is 19.1% in assay [3], 47 to 81.2% in assay [4] and 25.7 to 31.9% in assay [5].
